Values of other authors as cited in article PMC3043165.

Experiments:
[1] = target: integrin αIIbβ3 (Homo sapiens) (UniProt P08514)
[2] = target: integrin αvβ5 (Homo sapiens) (UniProt P06756)
integrin αvβ5 (Homo sapiens), sequence (P06756 31-992, chain 1 of 2): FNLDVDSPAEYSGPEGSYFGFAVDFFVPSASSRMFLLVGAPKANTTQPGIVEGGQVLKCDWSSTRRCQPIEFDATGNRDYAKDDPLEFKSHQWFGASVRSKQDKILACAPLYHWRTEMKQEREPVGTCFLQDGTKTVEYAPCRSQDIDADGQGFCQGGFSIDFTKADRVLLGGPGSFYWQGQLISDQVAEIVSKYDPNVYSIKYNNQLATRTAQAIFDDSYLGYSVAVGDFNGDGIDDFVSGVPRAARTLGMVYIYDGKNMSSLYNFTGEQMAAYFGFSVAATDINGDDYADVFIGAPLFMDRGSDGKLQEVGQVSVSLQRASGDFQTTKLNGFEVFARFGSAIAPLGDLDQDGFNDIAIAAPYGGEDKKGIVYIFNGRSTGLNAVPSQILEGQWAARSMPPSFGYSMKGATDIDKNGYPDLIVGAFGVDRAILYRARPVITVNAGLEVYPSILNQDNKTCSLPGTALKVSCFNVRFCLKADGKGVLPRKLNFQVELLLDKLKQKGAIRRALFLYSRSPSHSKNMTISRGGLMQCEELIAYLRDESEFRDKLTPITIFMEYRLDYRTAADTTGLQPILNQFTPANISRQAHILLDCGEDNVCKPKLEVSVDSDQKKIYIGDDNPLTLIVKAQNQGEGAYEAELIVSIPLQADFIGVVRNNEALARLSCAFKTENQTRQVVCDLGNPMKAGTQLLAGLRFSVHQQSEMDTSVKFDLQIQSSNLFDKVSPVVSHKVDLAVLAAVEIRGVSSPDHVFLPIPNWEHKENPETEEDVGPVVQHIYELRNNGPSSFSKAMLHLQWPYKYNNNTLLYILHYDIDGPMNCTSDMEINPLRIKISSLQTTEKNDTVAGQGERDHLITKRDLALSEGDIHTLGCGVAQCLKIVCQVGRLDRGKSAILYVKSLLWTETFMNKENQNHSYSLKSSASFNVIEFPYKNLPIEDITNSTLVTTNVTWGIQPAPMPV
integrin αvβ5 (Homo sapiens), sequence (P18084 24-719, chain 2 of 2, further chain): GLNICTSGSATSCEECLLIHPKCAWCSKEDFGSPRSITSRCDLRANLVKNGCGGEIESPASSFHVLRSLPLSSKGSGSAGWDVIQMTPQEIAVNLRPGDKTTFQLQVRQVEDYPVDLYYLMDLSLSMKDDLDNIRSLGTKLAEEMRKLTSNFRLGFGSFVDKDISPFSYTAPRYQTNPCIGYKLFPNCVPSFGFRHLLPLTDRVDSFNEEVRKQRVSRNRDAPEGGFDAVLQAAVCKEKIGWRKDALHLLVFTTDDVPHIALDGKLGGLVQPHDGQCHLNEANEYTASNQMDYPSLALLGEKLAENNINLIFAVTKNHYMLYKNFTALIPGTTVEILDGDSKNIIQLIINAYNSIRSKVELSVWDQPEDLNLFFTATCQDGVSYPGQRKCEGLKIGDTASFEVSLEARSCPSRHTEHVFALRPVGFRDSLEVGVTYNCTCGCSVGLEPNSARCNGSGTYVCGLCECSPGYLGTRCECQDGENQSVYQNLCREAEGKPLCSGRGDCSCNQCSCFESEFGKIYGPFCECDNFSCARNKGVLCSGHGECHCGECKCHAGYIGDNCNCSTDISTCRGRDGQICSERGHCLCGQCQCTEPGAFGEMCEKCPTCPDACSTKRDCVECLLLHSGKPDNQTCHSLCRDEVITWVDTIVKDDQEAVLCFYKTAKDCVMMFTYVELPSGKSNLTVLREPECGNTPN

| IC50 [1] [nM] | IC50 [2] [nM] | Substance |
| --- | --- | --- |
| 0.11 | – | c(RGDyK) |
| – | > 5000 | GRGDS peptide |
